According to patent publication US8076300B2, “FGF2-binding peptides and uses thereof” (Tecnogen S.p.A., priority 2006, dated 2011):
Each block holds one molecule with its values, some of them ahead of it. Ends that are not written are not given here.

What was measured:
GM7373 cells = experiment: Cell proliferation assay, endothelial GM7373 cells; type: cell-based, bovine; conditions: for inhibition of mitogenic activity exerted by FGF2: peptides 66 μM, PTX3 220 nM
Description: Cell proliferation assay on endothelial cells was performed as described^22. Briefly, GM7373 or MAE cells were seeded in 96-well dishes at 75,000 cells/cm^2 or 25,000 cells/cm^2, respectively. After 16 h, cells were incubated in fresh medium containing 0.4% FCS plus FGF2 (0.55 nM) in the absence or in the presence of different antagonists. After 24 or 48 h, respectively, cells were trypsinized and counted in a Burker chamber.

chick embryo CAM = experiment: Chicken embryo chorioallantoic membrane (CAM) assay, FGF2-induced neovascularization; type: in vivo; conditions: for macroscopic vessels converging towards the implant: FGF2 16 pmoles/embryo, with or without 3.0 nmoles of peptide, 72 hours
Description: Alginate beads (5 μl) containing vehicle or 16 pmoles of FGF2 with or without synthetic PTX3 peptides were prepared as described 24 and placed on top of the CAM of fertilized White Leghorn chicken eggs at day 11 of incubation (10 eggs per experimental group). After 72 hours, blood vessels converging towards the implant were counted by two observers in a double-blind fashion under a stereomicroscope (STEMI-SR, x2/0.12; Zeiss).

FGF2 [1] = molecular target: T1, FGF2 (Homo sapiens, UniProt P09038); experiment: BIAcore binding assay, FGF2 binding to PTX3 immobilized to a sensorchip; set-up: made in house; host or cells: FGF2: E. coli; PTX3: Chinese hamster ovary cells; conditions: for IC50 / inhibition of FGF2 binding to PTX3 immobilized to a BIAcore sensorchip: FGF2 0.8 μM; for IC50: antagonist in mobile phase, read-out: ID50, inhibition of FGF2 binding to the PTX3 surface; for inhibition of FGF2 binding to PTX3 immobilized to a BIAcore sensorchip: increasing peptide concentrations
T1 sequence (P09038 134-288): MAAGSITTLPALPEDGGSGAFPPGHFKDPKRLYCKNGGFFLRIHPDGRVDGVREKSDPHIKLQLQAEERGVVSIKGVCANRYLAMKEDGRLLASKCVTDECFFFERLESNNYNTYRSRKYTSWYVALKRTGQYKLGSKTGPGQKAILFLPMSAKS
Description: A BIAcore X apparatus (BIAcore Inc, Piscataway, N.J.) was used. Surface plasmon resonance was exploited to measure changes in refractive index caused by the ability of FGF2 to bind to PTX3 immobilized to a BIAcore sensorchip. To this purpose, PTX3 (2.2 μM) was allowed to react with a flow cell of a CM4 sensorchip that was previously activated with 50 μl of a mixture of 0.2 M N-ethyl-N′-(3-dimethylaminopropyl)-carbodiimide hydrochloride and 0.05 M N-hydroxysuccinimide. These experimental conditions allowed the immobilization of 5,000 resonance units (RUs), corresponding to approximately 0.1 pmoles of PTX3. Similar results were obtained for immobilization of gelatin, here used as a negative control and for blank subtraction. Increasing concentrations of FGF2 with or without synthetic PTX3 peptides were then injected in dilution buffer (PBS plus 0.005% surfactant P20, 5.0 μg/mL CaCl2 and MgCl2) over the PTX3 surface for 4 minutes (to allow their association with immobilized PTX3) and then washed until dissociation was observed.

FGF2 [2] = molecular target: T1, FGF2; experiment: Solid phase binding assay, FGF2 binding to immobilized synthetic PTX3 peptides; set-up: made in house; host or cells: E. coli; conditions: peptides 200 μg/well, FGF2 80 nM
Description: (§1) ELISA microplates were incubated for 16 hours at 4° C. with 100 μl/well of 100 mM NaHCO3, pH 9.6 (coating buffer) containing FGF2 (270 nM). Then, wells were overcoated for 2 hours at room temperature with 5% dry milk in coating buffer. […] Then, wells were sequentially incubated for 1 hour at 37° C. with a rabbit polyclonal anti-PTX3 antibody (1:2000 dilution) that recognizes both PTX3 fragments with similar efficiency in Western blot and ELISA, an anti-rabbit biotinylated antibody (1:2000), and 100 μl of streptavidin-horseredish peroxidase (1:5000, Amersham) for 1 hour at room temperature. Then, 100 μl/well of the chromogen substrate 2,29-azinobis(3-ethylbenzthiazolinesulfonic acid) were added. Absorbance values were read at 405 nm in an automatic ELISA reader. In some experiments, 100-μl aliquots of PBS containing biotin-labeled PTX3 (bPTX3) (22 nM) were incubated for 30 minutes at 37° C. onto FGF2-coated wells with or without competitors. Then, wells were washed, and the amount of bound bPTX3 was evaluated as described^17. Alternatively, synthetic PTX3 peptides were immobilized on ELISA microplate wells (200 μg/well) as described above. Then, FGF2 (80 nM) was added and FGF2 bound to immobilized peptides was assessed by 1 hour incubation at 37° C. with a rabbit polyclonal anti-FGF2 antibody (1:7000) followed by immunocomplex detection as described above.

FGF2 [3] = molecular target: T1, FGF2; experiment: Solid phase binding assay, PTX3 proteins on FGF2-coated wells; set-up: made in house; host or cells: E. coli; conditions: proteins at 44 nM, 30 minutes at 37° C.
Description: as §1

MAE cells = experiment: Cell proliferation assay, retrovirus infected MAE cells stimulated with FGF2; type: cell-based, murine; conditions: retroviral overexpression in MAE cells, FGF2 0.55 nM, 48 h
Description: The cDNAs encoding for human PTX3 and for the enhanced green fluorescent protein (EGFP) were obtained as described^17. The cDNAs encoding for the N-terminal fragment PTX3(1-178) (Nterm-PTX3) and the C-terminal fragment PTX3(179-381) fused to the leader sequence for secretion PTX3(1-17) (sCterm-PTX3) were generated from pLX-PTX3^17 by PCR and standard cloning techniques. All cDNAs were cloned in the pBABE retroviral vector thus generating pBABE-PTX3, pBABE-Nterm-PTX3, pBABE-sCterm-PTX3, and pBABE-EGFP that were used to transfect the EcoPack2-293 packaging cells in the presence of Lipofectamin 17. Transduced cells were selected with puromycin (1 μg/ml, Sigma) for 2 weeks. Clones with a viral titer higher than […] were used for further experimentation. Confluent cultures of MAE cells were then incubated for 24 hours with the conditioned medium from pBABE-PTX3, pBABE-Nterm-PTX3, PBABE-sCterm-PTX3, or pBABE-EGFP packaging cells in the presence of polybrene (8 μg/ml, Sigma). Infected cell populations were selected for 7 days with puromycin. […] To assess the levels of transgene protein expression and release by infected cells, cell cultures were grown under serum-free conditions for 2 days. […]
Cell proliferation assay on endothelial cells was performed as described^22. […] After 24 or 48 h, respectively, cells were trypsinized and counted in a Burker chamber.

Molecule: DNEIDNGLHPTEDPTPCDCGQEHSEWDKLF [PTX3(31-60)]
inhibition of mitogenic activity exerted by FGF2 (GM7373 cells; FGF2 0.55 nM): ineffective | inhibition of FGF2 binding to PTX3 immobilized to a BIAcore sensorchip (FGF2 [1]): no inhibitory effect | binding of free FGF2 to immobilized peptide or PTX3 (FGF2 [2]): not

Molecule: RGELQRLREELGRLA [PTX3(82-96)]
inhibition of mitogenic activity exerted by FGF2 (GM7373 cells; FGF2 0.55 nM): not | effect on angiogenic response triggered by FGF2 (chick embryo CAM; FGF2 16 pmoles): no effect | inhibition of FGF2 binding to PTX3 immobilized to a BIAcore sensorchip (FGF2 [1]): ineffective | binding of free FGF2 to immobilized peptide or PTX3 (FGF2 [2]): without interacting

Molecule: DKLFIMLENSQMRERMLLQATDDVLRGEL [PTX3(57-85)]
inhibition of mitogenic activity exerted by FGF2 (GM7373 cells; FGF2 0.55 nM): ineffective | inhibition of FGF2 binding to PTX3 immobilized to a BIAcore sensorchip (FGF2 [1]): no inhibitory effect | binding of free FGF2 to immobilized peptide or PTX3 (FGF2 [2]): not

Molecule: FGF2: Human recombinant FGF2 expressed in E. coli; heparin-binding growth factor, the angiogenic stimulus
macroscopic vessels converging towards the implant (chick embryo CAM): 44±7 vessels/embryo

B1: Cterm-PTX3: recombinant 6×His-tagged C-terminal fragment of PTX3 from E. coli (protein)
chain: CETAILFPMRSKKIFGSVHPVRPMRLESFSACIWVKATDVLNKTILFSYGTKRNPYEIQLYLSYQSIVFVVGGEENKLVAEAMVSLGRWTHLCGTWNSEEGLTSLWVNGELAATTVEMATGHIVPEGGILQIGQEKNGCCVGGGFDETLAFSGRLTGFNIWDSVLSNEEIRETGGAESCHIRGNIVGWGVTEIQPHGGAQYVSHHHHHH
binding to FGF2 immobilized to non-tissue culture plastic (FGF2 [3]): No interaction

B2: sCterm-PTX3: C-terminal fragment PTX3(179-381) fused to the leader sequence for secretion PTX3(1-17) (protein)
chain: CETAILFPMRSKKIFGSVHPVRPMRLESFSACIWVKATDVLNKTILFSYGTKRNPYEIQLYLSYQSIVFVVGGEENKLVAEAMVSLGRWTHLCGTWNSEEGLTSLWVNGELAATTVEMATGHIVPEGGILQIGQEKNGCCVGGGFDETLAFSGRLTGFNIWDSVLSNEEIRETGGAESCHIRGNIVGWGVTEIQPHGGAQYVS
inhibition of FGF2 mitogenic activity by conditioned medium of infected MAE cells (GM7373 cells; FGF2 0.55 nM, 24 h): ineffective | capacity of infected cells to proliferate in response to exogenous FGF2 (MAE cells): No inhibition

Further lines, with some results ahead:

IC50 (FGF2 [1]): 30 µM | potency relative to free full length PTX3 (FGF2 [1]; inhibition of FGF2 binding to PTX3 surface): 30 times lower | binding of free FGF2 to immobilized peptide or PTX3 (FGF2 [2]): binds
Molecule: RGELQRLREELGRLAESLARPCAPGAPAE [PTX3(82-110)]
inhibition of mitogenic activity exerted by FGF2 (GM7373 cells; FGF2 0.55 nM): inhibit | IC50 (GM7373 cells; dose-response, read-out: ID50, FGF2-antagonist activity on GM7373 cell proliferation): 30 µM | macroscopic vessels converging towards the implant (chick embryo CAM): 28±5 vessels/embryo

inhibition of FGF2 binding to PTX3 immobilized to a BIAcore sensorchip (FGF2 [1]): no inhibitory effect | binding of free FGF2 to immobilized peptide or PTX3 (FGF2 [2]): limited interaction
Molecule: APAEARLTSALDELLQATRDAGRRLA [PTX3(107-132)]
inhibition of mitogenic activity exerted by FGF2 (GM7373 cells; FGF2 0.55 nM): ineffective

inhibition of FGF2 binding to PTX3 immobilized to a BIAcore sensorchip (FGF2 [1]): did not prevent the binding
Molecule: ARPCAPGAPAE [PTX3(100-110)]

binding of free FGF2 to immobilized peptide or PTX3 (FGF2 [2]): binds
Molecule: ESLARPCAPGAPAE [PTX3(97-110)]
inhibition of mitogenic activity exerted by FGF2 (GM7373 cells; FGF2 0.55 nM): inhibits | inhibition in the angiogenic response triggered by FGF2 (chick embryo CAM; 80 nmoles of peptide, FGF2 16 pmoles): 50% | inhibition of FGF2 binding to PTX3 immobilized to a BIAcore sensorchip (FGF2 [1]): preventing its interaction with PTX3 immobilized to a BIAcore sensorchip

inhibition of FGF2 binding to PTX3 immobilized to a BIAcore sensorchip (FGF2 [1]): significant binding to FGF2
Molecule: ARPCA [PTX3(100-104)]
inhibition of mitogenic activity exerted by FGF2 (GM7373 cells; FGF2 0.55 nM): inhibits

inhibition of FGF2 binding to PTX3 immobilized to a BIAcore sensorchip (FGF2 [1]): significant binding to FGF2
Molecule: ESLARPCAPGA [PTX3(97-107)]

IC50 (FGF2 [1]): > 3000 µM
Molecule: EGLRGELRGSREAELLRQAARAPACPLPE [scrambled PTX3(82-110), reference compound]

inhibition of FGF2 binding to PTX3 immobilized to a BIAcore sensorchip (FGF2 [1]): ineffective | binding of free FGF2 to immobilized peptide or PTX3 (FGF2 [2]): without interacting
Molecule: RGELQRLREELGRLAESLAR [PTX3(82-101)]
inhibition of mitogenic activity exerted by FGF2 (GM7373 cells; FGF2 0.55 nM): not

inhibition of FGF2 binding to PTX3 immobilized to a BIAcore sensorchip (FGF2 [1]): did not prevent the binding
Molecule: ESLARPCA [PTX3(97-104)]
